Experimental data as given in publication PMC10331576 (2023).

Biological target: COVID-2019-Spike-328-585 (RBD) (SARS-CoV-2, UniProt P0DTC2 328-585)
Assay: BLI

B1: DC-SIGN.Fc (Fc fusion)
chain: QVSKVPSSISQEQSRQDAIYQNLTQLKAAVGELSEKSKLQEIYQELTQLKAAVGELPEKSKLQEIYQELTRLKAAVGELPEKSKLQEIYQELTWLKAAVGELPEKSKMQEIYQELTRLKAAVGELPEKSKQQEIYQELTRLKAAVGELPEKSKQQEIYQELTRLKAAVGELPEKSKQQEIYQELTQLKAAVERLCHPCPWEWTFFQGNCYFMSNSQRNWHDSITACKEVGAQLVVIKSAEEQNFLQLQSSRSNRFTWMGLSDLNQEGTWQWVDGSPLLPSFKQYWNRGEPNNVGEEDCAEFSGNGWNDDKCNLAKFWICKKSAASCSRDEEQFLSPAPATPNPPPA
Binder B1 has a koff of 0.000614 s⁻¹.
